From US20220356470 come the findings set out here.

In series [1] the test system is Type I-C Cascade-Cas3 D370A (helicase mutant) Cas3 D370A (Pseudomonas aeruginosa). As to the kind of experiment: cell_activity. The conditions noted are these: smaller deletions; PAM not stated.
The test system of series [2] is Type I-C Cascade with Cas3-Cas8 tether (Pseudomonas aeruginosa). Kind of series: cell_activity. The conditions noted are these: smaller deletions than untethered; PAM not stated.

With “crRNA targeting 200 bp upstream of phzM ; site 200 bp upstream of phzM”, in series [1], the activity (% survivors edited) is 25. Moreover, in series [2], the activity (% survivors with deletion (17/20)) was determined as 85.
